Patent US20230272029A1, “CO-AGONISTS AT GLP-1 AND GIP RECEPTORS SUITABLE FOR ORAL DELIVERY” (Novo Nordisk A/S, priority 2020, published 2023)
Starred links: 1 amine or outer side, 2 acyl side, 3 side chain; linkers in the order of their positions; H or OH if unused. Non-standard residues stand in square brackets, D forms with d. Groups on a side chain read outwards from the residue. No end group written: not given here. *: point of attachment. C20 diacid = O=C(O)CCCCCCCCCCCCCCCCCCC(=O)*; C18 diacid = O=C(O)CCCCCCCCCCCCCCCCC(=O)*; γGlu = O=C(O)[C@H](CCC(=O)[*:2])N[*:1]; εLys = N[C@@H](CCCCN[*:1])C(=O)[*:2]; Aib = CC(C)(N)C(=O)O

T1: human GIP receptor (human, UniProt P48546 22-466)
T1 sequence (looked up): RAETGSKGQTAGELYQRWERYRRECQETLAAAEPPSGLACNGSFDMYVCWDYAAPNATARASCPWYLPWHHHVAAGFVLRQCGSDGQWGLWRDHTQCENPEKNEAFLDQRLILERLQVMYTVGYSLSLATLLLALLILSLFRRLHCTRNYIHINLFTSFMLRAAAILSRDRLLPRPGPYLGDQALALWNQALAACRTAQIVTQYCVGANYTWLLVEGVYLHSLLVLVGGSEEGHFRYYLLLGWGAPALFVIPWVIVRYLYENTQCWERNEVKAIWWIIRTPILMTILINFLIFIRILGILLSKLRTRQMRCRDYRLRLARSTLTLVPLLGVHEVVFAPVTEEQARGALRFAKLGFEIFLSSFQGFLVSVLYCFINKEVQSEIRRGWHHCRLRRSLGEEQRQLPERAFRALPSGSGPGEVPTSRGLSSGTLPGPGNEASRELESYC

B1: Compound No. 24 (peptide)
peptide: Y[Aib]EGTFTSDYSILLEK([εLys-εLys-γGlu-C18 diacid])QAAQEFINWLLAGGPSSGAPPPS-OH
modifications: N-terminus assumed
SMILES: CC[C@H](C)[C@H](NC(=O)[C@H](Cc1ccccc1)NC(=O)[C@H](CCC(=O)O)NC(=O)[C@H](CCC(N)=O)NC(=O)[C@H](C)NC(=O)[C@H](C)NC(=O)[C@H](CCC(N)=O)NC(=O)[C@H](CCCCNC(=O)[C@@H](N)CCCCNC(=O)[C@@H](N)CCCCNC(=O)CC[C@H](NC(=O)CCCCCCCCCCCCCCCCC(=O)O)C(=O)O)NC(=O)[C@H](CCC(=O)O)NC(=O)[C@H](CC(C)C)NC(=O)[C@H](CC(C)C)NC(=O)[C@@H](NC(=O)[C@H](CO)NC(=O)[C@H](Cc1ccc(O)cc1)NC(=O)[C@H](CC(=O)O)NC(=O)[C@H](CO)NC(=O)[C@@H](NC(=O)[C@H](Cc1ccccc1)NC(=O)[C@@H](NC(=O)CNC(=O)[C@H](CCC(=O)O)NC(=O)C(C)(C)NC(=O)[C@@H](N)Cc1ccc(O)cc1)[C@@H](C)O)[C@@H](C)O)[C@@H](C)CC)C(=O)N[C@@H](CC(N)=O)C(=O)N[C@@H](Cc1c[nH]c2ccccc12)C(=O)N[C@@H](CC(C)C)C(=O)N[C@@H](CC(C)C)C(=O)N[C@@H](C)C(=O)NCC(=O)NCC(=O)N1CCC[C@H]1C(=O)N[C@@H](CO)C(=O)N[C@@H](CO)C(=O)NCC(=O)N[C@@H](C)C(=O)N1CCC[C@H]1C(=O)N1CCC[C@H]1C(=O)N1CCC[C@H]1C(=O)N[C@@H](CO)C(=O)O
B2: Compound No. 2 (peptide)
peptide: Y[Aib]EGTFTSDYSYYLEK([εLys-εLys-γGlu-C20 diacid])QAAQEFVNWLLAGGPSSGAPPPS-NH2
modifications: N-terminus assumed
SMILES: CC(C)C[C@H](NC(=O)[C@H](CC(C)C)NC(=O)[C@H](Cc1c[nH]c2ccccc12)NC(=O)[C@H](CC(N)=O)NC(=O)[C@@H](NC(=O)[C@H](Cc1ccccc1)NC(=O)[C@H](CCC(=O)O)NC(=O)[C@H](CCC(N)=O)NC(=O)[C@H](C)NC(=O)[C@H](C)NC(=O)[C@H](CCC(N)=O)NC(=O)[C@H](CCCCNC(=O)[C@@H](N)CCCCNC(=O)[C@@H](N)CCCCNC(=O)CC[C@H](NC(=O)CCCCCCCCCCCCCCCCCCC(=O)O)C(=O)O)NC(=O)[C@H](CCC(=O)O)NC(=O)[C@H](CC(C)C)NC(=O)[C@H](Cc1ccc(O)cc1)NC(=O)[C@H](Cc1ccc(O)cc1)NC(=O)[C@H](CO)NC(=O)[C@H](Cc1ccc(O)cc1)NC(=O)[C@H](CC(=O)O)NC(=O)[C@H](CO)NC(=O)[C@@H](NC(=O)[C@H](Cc1ccccc1)NC(=O)[C@@H](NC(=O)CNC(=O)[C@H](CCC(=O)O)NC(=O)C(C)(C)NC(=O)[C@@H](N)Cc1ccc(O)cc1)[C@@H](C)O)[C@@H](C)O)C(C)C)C(=O)N[C@@H](C)C(=O)NCC(=O)NCC(=O)N1CCC[C@H]1C(=O)N[C@@H](CO)C(=O)N[C@@H](CO)C(=O)NCC(=O)N[C@@H](C)C(=O)N1CCC[C@H]1C(=O)N1CCC[C@H]1C(=O)N1CCC[C@H]1C(=O)N[C@@H](CO)C(N)=O
B3: Compound No. 25 (peptide)
peptide: Y[Aib]EGTFTSDYSILLEK([εLys-εLys-γGlu-C18 diacid])QAAEEFINWLLAGGPSSGAPPPS-OH
modifications: N-terminus assumed
SMILES: CC[C@H](C)[C@H](NC(=O)[C@H](Cc1ccccc1)NC(=O)[C@H](CCC(=O)O)NC(=O)[C@H](CCC(=O)O)NC(=O)[C@H](C)NC(=O)[C@H](C)NC(=O)[C@H](CCC(N)=O)NC(=O)[C@H](CCCCNC(=O)[C@@H](N)CCCCNC(=O)[C@@H](N)CCCCNC(=O)CC[C@H](NC(=O)CCCCCCCCCCCCCCCCC(=O)O)C(=O)O)NC(=O)[C@H](CCC(=O)O)NC(=O)[C@H](CC(C)C)NC(=O)[C@H](CC(C)C)NC(=O)[C@@H](NC(=O)[C@H](CO)NC(=O)[C@H](Cc1ccc(O)cc1)NC(=O)[C@H](CC(=O)O)NC(=O)[C@H](CO)NC(=O)[C@@H](NC(=O)[C@H](Cc1ccccc1)NC(=O)[C@@H](NC(=O)CNC(=O)[C@H](CCC(=O)O)NC(=O)C(C)(C)NC(=O)[C@@H](N)Cc1ccc(O)cc1)[C@@H](C)O)[C@@H](C)O)[C@@H](C)CC)C(=O)N[C@@H](CC(N)=O)C(=O)N[C@@H](Cc1c[nH]c2ccccc12)C(=O)N[C@@H](CC(C)C)C(=O)N[C@@H](CC(C)C)C(=O)N[C@@H](C)C(=O)NCC(=O)NCC(=O)N1CCC[C@H]1C(=O)N[C@@H](CO)C(=O)N[C@@H](CO)C(=O)NCC(=O)N[C@@H](C)C(=O)N1CCC[C@H]1C(=O)N1CCC[C@H]1C(=O)N1CCC[C@H]1C(=O)N[C@@H](CO)C(=O)O
B4: Compound No. 23 (peptide)
peptide: Y[Aib]EGTFTSDYSILLEK([εLys-εLys-γGlu-C18 diacid])QAAREFIQWLLAGGPSSGAPPPS-OH
modifications: N-terminus assumed
SMILES: CC[C@H](C)[C@H](NC(=O)[C@H](Cc1ccccc1)NC(=O)[C@H](CCC(=O)O)NC(=O)[C@H](CCCNC(=N)N)NC(=O)[C@H](C)NC(=O)[C@H](C)NC(=O)[C@H](CCC(N)=O)NC(=O)[C@H](CCCCNC(=O)[C@@H](N)CCCCNC(=O)[C@@H](N)CCCCNC(=O)CC[C@H](NC(=O)CCCCCCCCCCCCCCCCC(=O)O)C(=O)O)NC(=O)[C@H](CCC(=O)O)NC(=O)[C@H](CC(C)C)NC(=O)[C@H](CC(C)C)NC(=O)[C@@H](NC(=O)[C@H](CO)NC(=O)[C@H](Cc1ccc(O)cc1)NC(=O)[C@H](CC(=O)O)NC(=O)[C@H](CO)NC(=O)[C@@H](NC(=O)[C@H](Cc1ccccc1)NC(=O)[C@@H](NC(=O)CNC(=O)[C@H](CCC(=O)O)NC(=O)C(C)(C)NC(=O)[C@@H](N)Cc1ccc(O)cc1)[C@@H](C)O)[C@@H](C)O)[C@@H](C)CC)C(=O)N[C@@H](CCC(N)=O)C(=O)N[C@@H](Cc1c[nH]c2ccccc12)C(=O)N[C@@H](CC(C)C)C(=O)N[C@@H](CC(C)C)C(=O)N[C@@H](C)C(=O)NCC(=O)NCC(=O)N1CCC[C@H]1C(=O)N[C@@H](CO)C(=O)N[C@@H](CO)C(=O)NCC(=O)N[C@@H](C)C(=O)N1CCC[C@H]1C(=O)N1CCC[C@H]1C(=O)N1CCC[C@H]1C(=O)N[C@@H](CO)C(=O)O
B5: Compound No. 9 (peptide)
peptide: Y[Aib]EGTFTSDYSIYLEK([εLys-εLys-γGlu-C18 diacid])QAAREFIEWLLAGGPSSGAPPPS-OH
modifications: N-terminus assumed
SMILES: CC[C@H](C)[C@H](NC(=O)[C@H](Cc1ccccc1)NC(=O)[C@H](CCC(=O)O)NC(=O)[C@H](CCCNC(=N)N)NC(=O)[C@H](C)NC(=O)[C@H](C)NC(=O)[C@H](CCC(N)=O)NC(=O)[C@H](CCCCNC(=O)[C@@H](N)CCCCNC(=O)[C@@H](N)CCCCNC(=O)CC[C@H](NC(=O)CCCCCCCCCCCCCCCCC(=O)O)C(=O)O)NC(=O)[C@H](CCC(=O)O)NC(=O)[C@H](CC(C)C)NC(=O)[C@H](Cc1ccc(O)cc1)NC(=O)[C@@H](NC(=O)[C@H](CO)NC(=O)[C@H](Cc1ccc(O)cc1)NC(=O)[C@H](CC(=O)O)NC(=O)[C@H](CO)NC(=O)[C@@H](NC(=O)[C@H](Cc1ccccc1)NC(=O)[C@@H](NC(=O)CNC(=O)[C@H](CCC(=O)O)NC(=O)C(C)(C)NC(=O)[C@@H](N)Cc1ccc(O)cc1)[C@@H](C)O)[C@@H](C)O)[C@@H](C)CC)C(=O)N[C@@H](CCC(=O)O)C(=O)N[C@@H](Cc1c[nH]c2ccccc12)C(=O)N[C@@H](CC(C)C)C(=O)N[C@@H](CC(C)C)C(=O)N[C@@H](C)C(=O)NCC(=O)NCC(=O)N1CCC[C@H]1C(=O)N[C@@H](CO)C(=O)N[C@@H](CO)C(=O)NCC(=O)N[C@@H](C)C(=O)N1CCC[C@H]1C(=O)N1CCC[C@H]1C(=O)N1CCC[C@H]1C(=O)N[C@@H](CO)C(=O)O
B6: Compound No. 22 (peptide)
peptide: Y[Aib]EGTFTSDYSILLEK([εLys-εLys-γGlu-C18 diacid])QAAREFVNWLLAGGPSSGAPPPS-OH
modifications: N-terminus assumed
SMILES: CC[C@H](C)[C@H](NC(=O)[C@H](CO)NC(=O)[C@H](Cc1ccc(O)cc1)NC(=O)[C@H](CC(=O)O)NC(=O)[C@H](CO)NC(=O)[C@@H](NC(=O)[C@H](Cc1ccccc1)NC(=O)[C@@H](NC(=O)CNC(=O)[C@H](CCC(=O)O)NC(=O)C(C)(C)NC(=O)[C@@H](N)Cc1ccc(O)cc1)[C@@H](C)O)[C@@H](C)O)C(=O)N[C@@H](CC(C)C)C(=O)N[C@@H](CC(C)C)C(=O)N[C@@H](CCC(=O)O)C(=O)N[C@@H](CCCCNC(=O)[C@@H](N)CCCCNC(=O)[C@@H](N)CCCCNC(=O)CC[C@H](NC(=O)CCCCCCCCCCCCCCCCC(=O)O)C(=O)O)C(=O)N[C@@H](CCC(N)=O)C(=O)N[C@@H](C)C(=O)N[C@@H](C)C(=O)N[C@@H](CCCNC(=N)N)C(=O)N[C@@H](CCC(=O)O)C(=O)N[C@@H](Cc1ccccc1)C(=O)N[C@H](C(=O)N[C@@H](CC(N)=O)C(=O)N[C@@H](Cc1c[nH]c2ccccc12)C(=O)N[C@@H](CC(C)C)C(=O)N[C@@H](CC(C)C)C(=O)N[C@@H](C)C(=O)NCC(=O)NCC(=O)N1CCC[C@H]1C(=O)N[C@@H](CO)C(=O)N[C@@H](CO)C(=O)NCC(=O)N[C@@H](C)C(=O)N1CCC[C@H]1C(=O)N1CCC[C@H]1C(=O)N1CCC[C@H]1C(=O)N[C@@H](CO)C(=O)O)C(C)C

target: human GLP-1 receptor (human, UniProt P43220 24-463); test: cell-based or functional assay

Going from B1 to B2, the “hGLP-1R, CRE Luc 0% HSA EC50 (pM)” value falls from 12.1 pM to 6 pM.

Going from B3 to B4, the “hGLP-1R, CRE Luc 0% HSA EC50 (pM)” value falls from 15.5 pM to 4.1 pM.

Going from B5 to B6, the “hGLP-1R, CRE Luc 0% HSA EC50 (pM)” value falls from 3.8 pM to 2.8 pM.

First: B1
Second: B2
The “hGLP-1R, CRE Luc 1% HSA EC50 (pM)” value of the first is lower: 490 pM for the first, 900 pM for the second.

First: B3
Second: B4
The “hGLP-1R, CRE Luc 1% HSA EC50 (pM)” value of the first is higher: 740 pM for the first, 118 pM for the second.

First: B5
Second: B6
The “hGLP-1R, CRE Luc 1% HSA EC50 (pM)” value of the first is higher: 279 pM for the first, 170 pM for the second.

target: T1, human GIP receptor; test: cell-based or functional assay

Compared with B1, B2 is lower in “hGIPR, CRE Luc 0% HSA EC50 (pM)” value: 3.9 pM for the first, 3.8 pM for the second.

Compared with B3, B4 is lower in “hGIPR, CRE Luc 0% HSA EC50 (pM)” value: 7.2 pM for the first, 6.7 pM for the second.

For B6, the “hGIPR, CRE Luc 0% HSA EC50 (pM)” value was 6.2 pM.

Compared with B1, B2 is higher in “hGIPR, CRE Luc 1% HSA EC50 (pM)” value: 115 pM for the first, 275 pM for the second.

First: B3
Second: B4
The “hGIPR, CRE Luc 1% HSA EC50 (pM)” value of the first is higher: 263 pM for the first, 134 pM for the second.

For B6, the “hGIPR, CRE Luc 1% HSA EC50 (pM)” value was 169 pM.
